Measurements taken from article doi:10.1101/2024.12.09.627393 (bioRxiv, 2024).

Biological target: T1, histone H4K5acK8acK12acK16ac residues 1–23 peptide (dCypher) (UniProt P62805 2-24, acetyl-lysine at 5, 8, 12 and 16)
T1 construct: histone H4 residues 1-23; also called H4Tetra^ac
Experiment: AlphaScreen or HTRF; dCypher: GST-CECR2-BRD titrated against histone peptides (100 nM); glutathione Acceptor and streptavidin Donor beads; 50 mM Tris pH 7.5, 50 mM NaCl, 0.01% Tween-20, 0.01% BSA, 1 mM TCEP, 0.0004% Poly-L-Lysine; room temperature; relative EC50 (EC50^rel)
Settings: both partners purified

B1: GST-CECR2-BRD (GST tag retained, for dCypher assays) (domain or fragment)
chain: not shown
notes: human CECR2 bromodomain, amino acids 424-538 of UniProt Q9BXF3-1, codon optimized for E. coli, in pGEX-6P-1; PreScission Protease site between GST and the bromodomain; source: E. coli BL21(DE3) pLysS, purified (glutathione agarose, eluted with reduced glutathione, dialysed); not shown: GST, N-terminal, kept
EC50: 7.2 nM
